According to patent US8822165B2, “Method for producing cAMP using chimeric olfactory receptor” (Panasonic Corporation, priority 2010, dated 2014):

B1: chimera2: EC1-IC1 domains of the β1AR, TM2-TM7 domains of the mOREG, IC4 domain of the β1AR (protein)
chain: MGAGALALGASEPCNLSSAAPLPDGAATAARLLVLASPPASLLPPASEGSAPLSQQWTAGMGLLLALIVLLIVVGNVLVIVAIAKTPRLQTLTNLTRPMYFFLSHLSFVDFCYSSIVAPKMLVNLVTMNRGISFVGCLVQFFFFCTFVVTESFLLGVMAYDRFVAIRNPLLYTVAMSQRLCAMLVLGSYAWGVVCSLILTCSALNLSFYGFNMINHFFCEFSSLLSLSRSDTSVSQLLLFVFATFNEISTLLIILLSYVLIVVTILKMKSASGRRKAFSTCASHLTAITIFHGTILFLYCVPNSKNSRHTVKVASVFYTVVIPMLNPLIYSLRNKSRDFRKAFQRLLCCARRAACRRRAAHGDRPRASGCLARAGPPPSPGAPSDDDDDDAGATPPARLLEPWAGCNGGTTTVDSDSSLDEPGRQGFSSESKV
modifications: chimera 2
B2: Rho-mOREG: mouse olfactory receptor for eugenol with N-terminal Rho tag (protein)
chain: MNGTEGPNFYVPFSNKTGVVMTLSDGNHSGAVFTLLGFSDYPELTIPLFLIFLTIYSITVVGNIGMIVIIRINPKLHIPMYFFLSHLSFVDFCYSSIVAPKMLVNLVTMNRGISFVGCLVQFFFFCTFVVTESFLLGVMAYDRFVAIRNPLLYTVAMSQRLCAMLVLGSYAWGVVCSLILTCSALNLSFYGFNMINHFFCEFSSLLSLSRSDTSVSQLLLFVFATFNEISTLLIILLSYVLIVVTILKMKSASGRRKAFSTCASHLTAITIFHGTILFLYCVPNSKNSRHTVKVASVFYTVVIPMLNPLIYSLRNKDVKDTVKKIIGTKVYSS
modifications: Rho-mOREG
notes: mouse olfactory receptor for eugenol with N-terminal Rho tag
B3: Rho-myc-mOREG: mouse olfactory receptor for eugenol with N-terminal Rho tag and myc epitope tag (protein)
chain: MNGTEGPNFYVPFSNKTGVVEQKLISEEDLEFMTLSDGNHSGAVFTLLGFSDYPELTIPLFLIFLTIYSITVVGNIGMIVIIRINPKLHIPMYFFLSHLSFVDFCYSSIVAPKMLVNLVTMNRGISFVGCLVQFFFFCTFVVTESFLLGVMAYDRFVAIRNPLLYTVAMSQRLCAMLVLGSYAWGVVCSLILTCSALNLSFYGFNMINHFFCEFSSLLSLSRSDTSVSQLLLFVFATFNEISTLLIILLSYVLIVVTILKMKSASGRRKAFSTCASHLTAITIFHGTILFLYCVPNSKNSRHTVKVASVFYTVVIPMLNPLIYSLRNKDVKDTVKKIIGTKVYSS
modifications: Rho-myc-mOREG
B4: chimera1: IC4 domain of the Rho-myc-mOREG is substituted with the IC4 domain of the beta-1 adrenergic receptor (protein)
chain: MNGTEGPNFYVPFSNKTGVVEQKLISEEDLEFMTLSDGNHSGAVFTLLGFSDYPELTIPLFLIFLTIYSITVVGNIGMIVIIRINPKLHIPMYFFLSHLSFVDFCYSSIVAPKMLVNLVTMNRGISFVGCLVQFFFFCTFVVTESFLLGVMAYDRFVAIRNPLLYTVAMSQRLCAMLVLGSYAWGVVCSLILTCSALNLSFYGFNMINHFFCEFSSLLSLSRSDTSVSQLLLFVFATFNEISTLLIILLSYVLIVVTILKMKSASGRRKAFSTCASHLTAITIFHGTILFLYCVPNSKNSRHTVKVASVFYTVVIPMLNPLIYSLRNKDFRKAFQRLLCCARRAACRRRAAHGDRPRASGCLARAGPPPSPGAPSDDDDDDAGATPPARLLEPWAGCNGGTTTVDSDSSLDEPGRQGFSSESKV
modifications: chimera 1
notes: IC4 domain of the Rho-myc-mOREG is substituted with the IC4 domain of the beta-1 adrenergic receptor

Columns and labels:
HEK293T cells [1] = assay: cAMP production by mOREG-derived receptors expressed in HEK293T cells, eugenol as agonist (Experiment 1); format: cell-based
Description: Subsequently, the HEK293T cells were transfected with the above-mentioned three plasmids by a lipofection method. The HEK293T cells were incubated for 48 hours, and the β1AR consisting of the protein represented by SEQ ID NO: 03 was expressed on the cell membrane of the HEK293T cell.
The abbreviation “IBMX” means 3-isobutyl-1-methylxanthine. The IBMX is one of the phosphodiesterase inhibitors. The IBMX stabilizes cAMP, which is unstable.
The expression was conducted similarly to that of the step 2 of the reference example 1 except that the plasmid (Rho-mOREG) was used instead of the plasmid (β1AR). In this way, the Rho-mOREG (SEQ ID NO: 34) was expressed on a cell membrane.
Based on the measured cAMP concentration, a concentration increase value was calculated in accordance with the following equation: (Concentration increase value)=(the cAMP concentration measured when the concentration of the eugenol was 300μM)−(the cAMP concentration measured when the concentration of the eugenol was 0 μM)

HEK293T cells [2] = assay: as above; format: cell-based; remark: listed apart in the source

Molecule | concentration increase value of the cAMP (HEK293T cells [1]; eugenol 300 μM minus eugenol 0 μM) | cAMP concentration (HEK293T cells [1]; eugenol 0 μM) | concentration increase value of the cAMP (HEK293T cells [1]; eugenol 300 μM (Table 5)) | concentration increase value of the cAMP (HEK293T cells [2]; eugenol 30 μM) | concentration increase value of the cAMP (HEK293T cells [2]; eugenol 1000 μM) | concentration increase value compared with the other olfactory receptors derived from the mOREG (in words) (HEK293T cells [1]; eugenol 300 μM, Table 4) | concentration increase value of the cAMP compared with the other olfactory receptors (in words) (HEK293T cells [2]; regardless of the concentration of eugenol, Table 5)
B1 | 0.0002 pmol/microgram |  |  |  |  |  | 
B2 |  | 0.00633 pmol/µg | 0.0018 | 0.0012 | 0.0026 |  | 
B3 |  |  | 0.0060 | 0.0028 | 0.0190 |  | 
B4 |  |  | 0.018 | 0.0065 | 0.031 | much greater | greater
